Source: patent publication US20160130305A1

Key:
[1] = molecular target: HLA B*0702 (human); test: competition with radiolabeled probe peptide on purified HLA
[2] = molecular target: HLA DRB1*0101 (human); test: competition with radiolabeled probe peptide, purified MHC

| Substance | IC50 [1] | IC50 [2] |
| --- | --- | --- |
| NS4B2296-2305 (peptide) | > 1000 nM | – |
| NS52967-2981 (peptide; other documents disagree on this pair) | – | 48 nM |
